Reference: patent US20230390362A1, “USE OF TRIGONAL AGONIST HAVING ACTIVITIES TO ALL OF GLUCAGON, GLP-1, AND GIP RECEPTORS IN TREATMENT OF SEQUELAE FOLLOWING RESPIRATORY INFECTIOUS DISEASES” (HANMI PHARM. CO., LTD., priority 2020, published 2023)
Positions of bridges follow the written chain, without caps; N, C: chain ends. Non-standard residues stand in square brackets, D forms with d. No end group written: not given here. *: point of attachment. Acetyl(2-(4-imidazolyl)) = O=C(Cc1c[nH]cn1)*; Aib = CC(C)(N)C(=O)O

T1: human GIP receptor (human, UniProt P48546 22-466)
T1 sequence (looked up): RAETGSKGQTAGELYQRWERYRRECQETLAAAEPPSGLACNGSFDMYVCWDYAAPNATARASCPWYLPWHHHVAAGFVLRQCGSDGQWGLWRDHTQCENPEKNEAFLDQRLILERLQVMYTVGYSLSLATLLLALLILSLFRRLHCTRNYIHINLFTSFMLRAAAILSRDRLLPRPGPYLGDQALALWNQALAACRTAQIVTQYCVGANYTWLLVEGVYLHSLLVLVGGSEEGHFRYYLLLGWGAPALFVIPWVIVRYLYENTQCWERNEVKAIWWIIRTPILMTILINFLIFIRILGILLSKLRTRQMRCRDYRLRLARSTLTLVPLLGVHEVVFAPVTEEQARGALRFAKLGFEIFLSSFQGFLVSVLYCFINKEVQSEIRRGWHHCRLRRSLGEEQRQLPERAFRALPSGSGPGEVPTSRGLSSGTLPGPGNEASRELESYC

B1: trigonal agonist of SEQ ID NO: 2 (peptide)
peptide: H[Aib]QGTFTSDVSSYLDGQAQKEFIAWLVKGC
B2: trigonal agonist of SEQ ID NO: 88 (peptide)
peptide: {Acetyl(2-(4-imidazolyl))}-[Aib]QGTFTSDYSKYLDEKRQKEFVQWLLNTKC
modifications: bridge 15-19
B3: trigonal agonist of SEQ ID NO: 18 (peptide)
peptide: {Acetyl(2-(4-imidazolyl))}-GQGTFTSDLSKQMDSERAREFIEWLKNTGPSSGAPPPSHG
B4: trigonal agonist of SEQ ID NO: 97 (peptide)
peptide: Y[Aib]QGTFTSDYSKYLDEKRAKEFVQWLLDCHPSSGQPPPS
modifications: bridge 16-20
B5: trigonal agonist of SEQ ID NO: 12 (peptide)
peptide: {Acetyl(2-(4-imidazolyl))}-GEGTFISDLSKYMDEQAVQLFVEWLMAGGPSSGAPPPSHG
B6: trigonal agonist of SEQ ID NO: 94 (peptide)
peptide: {Acetyl(2-(4-imidazolyl))}-[Aib]QGTFTSDYSIAMDEIHQKDFVNWLLNTKC
modifications: bridge 15-19
B7: trigonal agonist of SEQ ID NO: 98 (peptide)
peptide: Y[Aib]QGTFTSDYSKALDEKAAKEFVNWLLDHHPSSGQPPPSC
modifications: bridge 16-20
B8: trigonal agonist of SEQ ID NO: 11 (peptide)
peptide: {Acetyl(2-(4-imidazolyl))}-GEGTFTSDLSKYLDSRRQQLFVQWLKAGGPSSGAPPPSHG
B9: trigonal agonist of SEQ ID NO: 96 (peptide)
peptide: Y[Aib]QGTFTSDYSKYLDEKRAKEFVQWLLDHCPSSGQPPPS
modifications: bridge 16-20
B10: trigonal agonist of SEQ ID NO: 93 (peptide)
peptide: {Acetyl(2-(4-imidazolyl))}-[Aib]QGTFTSDYSKYLDEKRQKEFVNWLLAQKC
modifications: bridge 15-19
B11: trigonal agonist of SEQ ID NO: 87 (peptide)
peptide: {Acetyl(2-(4-imidazolyl))}-[Aib]QGTFTSDYSIAMDEIHQKDFVNWLLNTC
modifications: bridge 15-19
B12: trigonal agonist of SEQ ID NO: 91 (peptide)
peptide: {Acetyl(2-(4-imidazolyl))}-[Aib]EGTFTSDYSIAMDEIHQKDFVDWLLAEKC
modifications: bridge 15-19
B13: trigonal agonist of SEQ ID NO: 102 (peptide)
peptide: Y[Aib]QGTFTSDYSKALDEKAAKDFVNWLLDQHPSSGQPPPSC
modifications: bridge 16-20
B14: trigonal agonist of SEQ ID NO: 16 (peptide)
peptide: {Acetyl(2-(4-imidazolyl))}-GQGTFTSDLSKQMDSEAQQLFIEWLKNGGPSSGAPPPSHG

Molecular target: T1, human GIP receptor
Experiment: cell-based or functional assay

B1 and B2 cannot be ordered by “In vitro activity relative to native peptide (%), vs. GIP (cAMP EC50)” value: less than 0.1% for the first, less than 0.1% for the second.

Compared with B3, B4 is higher in “In vitro activity relative to native peptide (%), vs. GIP (cAMP EC50)” value: less than 0.1% for the first, 2.6% for the second.

B5 and B6 cannot be ordered by “In vitro activity relative to native peptide (%), vs. GIP (cAMP EC50)” value: less than 0.1% for the first, less than 0.1% for the second.

Going from B7 to B8, the “In vitro activity relative to native peptide (%), vs. GIP (cAMP EC50)” value falls from 47.1% to less than 0.1%.

Going from B9 to B10, the “In vitro activity relative to native peptide (%), vs. GIP (cAMP EC50)” value falls from 5.2% to 0.7%.

Going from B11 to B12, the “In vitro activity relative to native peptide (%), vs. GIP (cAMP EC50)” value rises from less than 0.1% to 0.3%.

Compared with B13, B14 is lower in “In vitro activity relative to native peptide (%), vs. GIP (cAMP EC50)” value: 58% for the first, less than 0.1% for the second.

Molecular target: human GLP-1 receptor (human, UniProt P43220 24-463)
Experiment: cell-based or functional assay

Compared with B1, B2 is higher in “In vitro activity relative to native peptide (%), vs. GLP-1 (cAMP EC50)” value: 5.9% for the first, 9.6% for the second.

Compared with B3, B4 is higher in “In vitro activity relative to native peptide (%), vs. GLP-1 (cAMP EC50)” value: less than 0.1% for the first, 10.5% for the second.

Compared with B5, B6 is higher in “In vitro activity relative to native peptide (%), vs. GLP-1 (cAMP EC50)” value: 0.4% for the first, 0.5% for the second.

Compared with B7, B8 is lower in “In vitro activity relative to native peptide (%), vs. GLP-1 (cAMP EC50)” value: 28.1% for the first, 1.4% for the second.

Going from B9 to B10, the “In vitro activity relative to native peptide (%), vs. GLP-1 (cAMP EC50)” value falls from 34.4% to 5.7%.

Going from B11 to B12, the “In vitro activity relative to native peptide (%), vs. GLP-1 (cAMP EC50)” value rises from 0.9% to 31.9%.

First: B13
Second: B14
The “In vitro activity relative to native peptide (%), vs. GLP-1 (cAMP EC50)” value of the first is higher: 23.3% for the first, 2.1% for the second.

Molecular target: human GCG receptor (human, UniProt P47871 26-477)
Experiment: cell-based or functional assay

Chain of human GCG receptor (P47871 26-477): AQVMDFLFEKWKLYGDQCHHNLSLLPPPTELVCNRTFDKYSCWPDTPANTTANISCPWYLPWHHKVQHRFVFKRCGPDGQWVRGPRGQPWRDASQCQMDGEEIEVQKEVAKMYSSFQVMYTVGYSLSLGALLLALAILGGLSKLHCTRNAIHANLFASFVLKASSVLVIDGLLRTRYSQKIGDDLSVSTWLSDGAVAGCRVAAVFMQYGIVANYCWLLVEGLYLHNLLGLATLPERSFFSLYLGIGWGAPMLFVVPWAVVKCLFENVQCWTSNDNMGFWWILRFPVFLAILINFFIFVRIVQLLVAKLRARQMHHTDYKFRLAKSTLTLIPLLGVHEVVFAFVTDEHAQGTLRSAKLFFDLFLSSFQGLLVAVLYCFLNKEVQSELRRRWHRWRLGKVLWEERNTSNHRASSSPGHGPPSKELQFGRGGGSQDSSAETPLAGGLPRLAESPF

Compared with B1, B2 is higher in “In vitro activity relative to native peptide (%), vs. Glucagon (cAMP EC50)” value: less than 0.1% for the first, 0.3% for the second.

Compared with B3, B4 is higher in “In vitro activity relative to native peptide (%), vs. Glucagon (cAMP EC50)” value: less than 0.1% for the first, 62.8% for the second.

B5 and B6 cannot be ordered by “In vitro activity relative to native peptide (%), vs. Glucagon (cAMP EC50)” value: less than 0.1% for the first, less than 0.1% for the second.

Going from B7 to B8, the “In vitro activity relative to native peptide (%), vs. Glucagon (cAMP EC50)” value falls from 8.2% to less than 0.1%.

First: B9
Second: B10
The “In vitro activity relative to native peptide (%), vs. Glucagon (cAMP EC50)” value of the first is higher: 195% for the first, 0.3% for the second.

Going from B11 to B12, the “In vitro activity relative to native peptide (%), vs. Glucagon (cAMP EC50)” value rises from less than 0.1% to 16.8%.

Compared with B13, B14 is lower in “In vitro activity relative to native peptide (%), vs. Glucagon (cAMP EC50)” value: 29.5% for the first, less than 0.1% for the second.
